Molecular target: the molecule itself
Experiment: cryo-EM structure; auto-assembled filaments of recombinant IFI16 PYD, 73 uM, in 40 mM HEPES pH 7.4, 160 mM NaCl, 1 mM EDTA, 1 mM DTT; helical reconstruction

B1: IFI16^PYD (pyrin domain of human Interferon Inducible Protein 16, residues 1-94) (domain or fragment, UniProt Q16666 1-94, looked up)
chain: MGKKYKNIVLLKGLEVINDYHFRMVKSLLSNDLKLNLKMREEYDKIQIADLMEEKFRGDAGLGKLIKIFEDIPTLEDLAETLKKEKLKVKGPAL
notes: Interferon inducible protein 16 (IFI16), human, pyrin domain, residues 1-94; Assembles into a helical filament (three-start helix, 134.6 degrees rotation, 5.6 Å rise, no rotational symmetry); The number of copies in a filament is not defined; Cloned in pET21b; also called IFI16^PYD filament; source: E. coli BL21(DE3), purified (Ni-NTA, Superdex 75 SEC)
Question: Does B1 bind?
Answer: binds
